Assay results from the Human Domainome abundance scans (Beltran et al. 2025).
± gives the uncertainty stated by the source.

B1: Intersectin-1, residues 909 to 971; numbered along this chain, Q15811 (parent)
chain: QGEKVEGLQAQALYPWRAKKDNHLNFNKNDVITVLEQQDMWWFGEVQGQKGWFPKSYVKLISG

Variants of: B1
Test: abundance fitness (aPCA) (normalised: wild type 0, dead -1); higher = more abundant; growth selection in yeast, the domain comes from the species named
Conditions: Homo sapiens

QGEKVEGLQAQALYPWRAKKDNHLNFNKNDVITVLEQQDMWWVGEVQGQKGWFPKSYVKLISG [F43V] and QGEKVEGLQAQALYPWRAKKDNHLNFNKNDVITVLEQQDMWWPGEVQGQKGWFPKSYVKLISG [F43P] are within error of each other in abundance fitness: -0.923 ± 0.18 for the first, -0.808 ± 0.17 for the second.

Going from QGEKVEGLQAQALYPWRAKKDNHLNFNKNDVITVLEQQDMWWAGEVQGQKGWFPKSYVKLISG [F43A] to QGEKVEGLQAQALYPWRAKKDNHLNFNKNDVITVLEQQDMWWKGEVQGQKGWFPKSYVKLISG [F43K], the abundance fitness rises from -0.696 ± 0.13 to -0.202 ± 0.11.

QGEKVEGLQAQALYPWRAKKDNHLNFNKNDVITVLEQQDMWWRGEVQGQKGWFPKSYVKLISG [F43R] and QGEKVEGLQAQALYPWRAKKDNHLNFNKNDVITVLEQQDMWWYGEVQGQKGWFPKSYVKLISG [F43Y] are within error of each other in abundance fitness: -0.328 ± 0.086 for the first, -0.119 ± 0.29 for the second.

QGEKVEGLQAQALYPWRAKKDNHLNFNKNDVITVLEQQDMWWIGEVQGQKGWFPKSYVKLISG [F43I] and QGEKVEGLQAQALYPWRAKKDNHLNFNKNDVITVLEQQDMWWGGEVQGQKGWFPKSYVKLISG [F43G] are within error of each other in abundance fitness: -0.663 ± 0.48 for the first, -0.596 ± 0.16 for the second.

First: QGEKVEGLQAQALYPWRAKKDNHLNFNKNDVITVLEQQDMWWLGEVQGQKGWFPKSYVKLISG [F43L]
Second: QGEKVEGLQAQALYPWRAKKDNHLNFNKNDVITVLEQQDMWWNGEVQGQKGWFPKSYVKLISG [F43N]
The abundance fitness of the first is higher: -0.019 ± 0.09 for the first, -0.427 ± 0.25 for the second.

QGEKVEGLQAQALYPWRAKKDNHLNFNKNDVITVLEQQDMWWSGEVQGQKGWFPKSYVKLISG [F43S] and QGEKVEGLQAQALYPWRAKKDNHLNFNKNDVITVLEQQDMWWEGEVQGQKGWFPKSYVKLISG [F43E] are within error of each other in abundance fitness: -0.546 ± 0.13 for the first, -0.465 ± 0.12 for the second.

QGEKVEGLQAQALYPWRAKKDNHLNFNKNDVITVLEQQDMWWDGEVQGQKGWFPKSYVKLISG [F43D] and QGEKVEGLQAQALYPWRAKKDNHLNFNKNDVITVLEQQDMWWCGEVQGQKGWFPKSYVKLISG [F43C] are within error of each other in abundance fitness: -0.997 ± 0.34 for the first, -0.563 ± 0.33 for the second.

Compared with QGEKVEGLQAQALYPWRAKKDNHLNFNKNDVITVLEQQDMWWTGEVQGQKGWFPKSYVKLISG [F43T], QGEKVEGLQAQALYPWRAKKDNHLNFNKNDVITVLEQQDMWWHGEVQGQKGWFPKSYVKLISG [F43H] is higher in abundance fitness: -0.811 ± 0.47 for the first, 0.168 ± 0.47 for the second.

QGEKVEGLQAQALYPWRAKKDNHLNFNKNDVITVLEQQDMWWMGEVQGQKGWFPKSYVKLISG [F43M] and QGEKVEGLQAQALYPWRAKKDNHLNFNKNDVITVLEQQDMWWWGEVQGQKGWFPKSYVKLISG [F43W] are within error of each other in abundance fitness: -0.107 ± 0.17 for the first, -0.061 ± 0.14 for the second.

QGEKVEGLQAQALYPWRAKKDNHLNFNKNDVITVLEQQDMWAFGEVQGQKGWFPKSYVKLISG [W42A] and QGEKVEGLQAQALYPWRAKKDNHLNFNKNDVITVLEQQDMWDFGEVQGQKGWFPKSYVKLISG [W42D] are within error of each other in abundance fitness: -0.244 ± 0.073 for the first, -0.429 ± 0.25 for the second.

QGEKVEGLQAQALYPWRAKKDNHLNFNKNDVITVLEQQDMWMFGEVQGQKGWFPKSYVKLISG [W42M] and QGEKVEGLQAQALYPWRAKKDNHLNFNKNDVITVLEQQDMWFFGEVQGQKGWFPKSYVKLISG [W42F] are within error of each other in abundance fitness: -0.192 ± 0.13 for the first, -0.057 ± 0.17 for the second.

QGEKVEGLQAQALYPWRAKKDNHLNFNKNDVITVLEQQDMWQFGEVQGQKGWFPKSYVKLISG [W42Q] and QGEKVEGLQAQALYPWRAKKDNHLNFNKNDVITVLEQQDMWEFGEVQGQKGWFPKSYVKLISG [W42E] are within error of each other in abundance fitness: -0.837 ± 0.24 for the first, -0.814 ± 0.12 for the second.

QGEKVEGLQAQALYPWRAKKDNHLNFNKNDVITVLEQQDMWGFGEVQGQKGWFPKSYVKLISG [W42G] and QGEKVEGLQAQALYPWRAKKDNHLNFNKNDVITVLEQQDMWRFGEVQGQKGWFPKSYVKLISG [W42R] are within error of each other in abundance fitness: -0.734 ± 0.086 for the first, -0.767 ± 0.093 for the second.

First: QGEKVEGLQAQALYPWRAKKDNHLNFNKNDVITVLEQQDMWCFGEVQGQKGWFPKSYVKLISG [W42C]
Second: QGEKVEGLQAQALYPWRAKKDNHLNFNKNDVITVLEQQDMWSFGEVQGQKGWFPKSYVKLISG [W42S]
The abundance fitness of the first is higher: -0.055 ± 0.12 for the first, -0.667 ± 0.12 for the second.

QGEKVEGLQAQALYPWRAKKDNHLNFNKNDVITVLEQQDMWIFGEVQGQKGWFPKSYVKLISG [W42I] and QGEKVEGLQAQALYPWRAKKDNHLNFNKNDVITVLEQQDMWVFGEVQGQKGWFPKSYVKLISG [W42V] are within error of each other in abundance fitness: -0.605 ± 0.29 for the first, -0.411 ± 0.07 for the second.

QGEKVEGLQAQALYPWRAKKDNHLNFNKNDVITVLEQQDMWKFGEVQGQKGWFPKSYVKLISG [W42K] and QGEKVEGLQAQALYPWRAKKDNHLNFNKNDVITVLEQQDMWPFGEVQGQKGWFPKSYVKLISG [W42P] are within error of each other in abundance fitness: -1.18 ± 0.4 for the first, -0.658 ± 0.14 for the second.

Compared with QGEKVEGLQAQALYPWRAKKDNHLNFNKNDVITVLEQQDMWLFGEVQGQKGWFPKSYVKLISG [W42L], QGEKVEGLQAQALYPWRAKKDNHLNFNKNDVITVLEQQDMWTFGEVQGQKGWFPKSYVKLISG [W42T] is lower in abundance fitness: -0.088 ± 0.066 for the first, -0.527 ± 0.085 for the second.

First: QGEKVEGLQAQALYPWRAKKDNHLNFNKNDVITVLEQQDMWYFGEVQGQKGWFPKSYVKLISG [W42Y]
Second: QGEKVEGLQAQALYPWRAKKDNHLNFNKNDVITVLEQQDMCWFGEVQGQKGWFPKSYVKLISG [W41C]
The abundance fitness of the first is higher: 0.031 ± 0.15 for the first, -0.318 ± 0.096 for the second.

QGEKVEGLQAQALYPWRAKKDNHLNFNKNDVITVLEQQDMIWFGEVQGQKGWFPKSYVKLISG [W41I] and QGEKVEGLQAQALYPWRAKKDNHLNFNKNDVITVLEQQDMDWFGEVQGQKGWFPKSYVKLISG [W41D] are within error of each other in abundance fitness: -0.815 ± 0.45 for the first, -0.245 ± 0.13 for the second.

QGEKVEGLQAQALYPWRAKKDNHLNFNKNDVITVLEQQDMGWFGEVQGQKGWFPKSYVKLISG [W41G] and QGEKVEGLQAQALYPWRAKKDNHLNFNKNDVITVLEQQDMAWFGEVQGQKGWFPKSYVKLISG [W41A] are within error of each other in abundance fitness: -0.78 ± 0.28 for the first, -0.489 ± 0.13 for the second.

QGEKVEGLQAQALYPWRAKKDNHLNFNKNDVITVLEQQDMVWFGEVQGQKGWFPKSYVKLISG [W41V] and QGEKVEGLQAQALYPWRAKKDNHLNFNKNDVITVLEQQDMNWFGEVQGQKGWFPKSYVKLISG [W41N] are within error of each other in abundance fitness: -0.319 ± 0.14 for the first, -0.154 ± 0.15 for the second.
